Tests used:
[1] = target: His-tagged ectodomain of human transferrin receptor 1 (hTfR1, R121-F760) (human) (UniProt P02786); experiment: SPR; binder on protein A chip, hTfR1 as analyte, without hTf
[2] = target: His-tagged ectodomain of human transferrin receptor 1 (hTfR1, R121-F760) (human) (UniProt P02786); experiment: SPR; binder on protein A chip, hTfR1 as analyte, in presence of 250 nM hTf
[3] = target: His-tagged ectodomain of human transferrin receptor 1 (hTfR1, R121-F760) (human) (UniProt P02786); experiment: SPR Biacore T200 single-cycle; hTfR1 captured on amine-coupled hTf, binder as analyte; 1:1 model

Chain of His-tagged ectodomain of human transferrin receptor 1 (hTfR1, R121-F760) (human) (P02786 other isoform, or with tags, fused parts or gaps limits assumed): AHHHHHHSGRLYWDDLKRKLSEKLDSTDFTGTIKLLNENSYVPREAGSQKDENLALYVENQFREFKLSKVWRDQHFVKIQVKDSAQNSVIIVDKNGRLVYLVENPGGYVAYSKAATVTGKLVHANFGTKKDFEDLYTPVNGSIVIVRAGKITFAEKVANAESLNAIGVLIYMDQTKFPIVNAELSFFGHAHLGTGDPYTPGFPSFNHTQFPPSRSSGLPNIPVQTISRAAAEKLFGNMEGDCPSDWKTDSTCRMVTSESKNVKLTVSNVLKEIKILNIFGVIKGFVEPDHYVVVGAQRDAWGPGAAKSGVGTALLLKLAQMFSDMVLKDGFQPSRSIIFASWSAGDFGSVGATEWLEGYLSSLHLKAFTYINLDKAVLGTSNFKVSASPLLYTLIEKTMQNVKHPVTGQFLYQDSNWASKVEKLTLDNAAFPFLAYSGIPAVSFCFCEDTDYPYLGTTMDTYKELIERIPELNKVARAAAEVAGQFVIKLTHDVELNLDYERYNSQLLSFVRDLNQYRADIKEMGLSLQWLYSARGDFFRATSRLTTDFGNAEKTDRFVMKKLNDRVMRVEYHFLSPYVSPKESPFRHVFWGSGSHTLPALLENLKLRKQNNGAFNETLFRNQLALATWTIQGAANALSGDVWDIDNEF

## Benchmark antibody 128.1 (BA1), full length human IgG1
[1]
  Kd: 0.101 nM
  koff: 8.87e-05 s⁻¹
  kon: 882000 M⁻¹ s⁻¹
[2]
  Kd: 0.0834 nM
  koff: 5.77e-05 s⁻¹
  kon: 692000 M⁻¹ s⁻¹
[3]
  Kd: 0.0199 nM
  koff: 5.63e-05 s⁻¹
  kon: 2.82e+06 M⁻¹ s⁻¹

Source: patent US20260116990A1
